Measured values from FireProtDB (doi:10.1016/0022-2836(92)90564-z).
Several values for one entry are separate records, joined by “and”; a condition that tells them apart may be missing. Equal entries are not always repeated.

B1: Ribonuclease, P00648 (parent)
chain: MMKMEGIALKKRLSWISVCLLVLVSAAGMLFSTAAKTETSSHKAHTEAQVINTFDGVADYLQTYHKLPDNYITKSEAQALGWVASKGNLADVAPGKSIGGDIFSNREGKLPGKSGRTWREADINYTSGFRNSDRILYSSDWLIYKTTDHYQTFTKIR

Variants of: B1
Details: Bacillus amyloliquefaciens; pH 6.3; 25 °C; Urea; Fluorescence; MES 1.00 M; NaCl 613 mM; reversible: yes; structure 1BNI; whole UniProt chain shown

With MMKMEGIALKKRLSWISVCLLVLVSAAGMLFSTAAKTETSSHKAHTEAQVINTFDGVADYLQTYHKLPDNYITKSEAQALGWVASKGNLADVAPGKSIGGDIFSNREGKLPGKSGRTWREADINYTSGFRNSDRILYSSDWLIYKTTDHYQTFTKAR the “ddG of mutation (higher = less stable)” value was 2.22 kcal/mol and 1.4 kcal/mol.
In the case of MMKMEGIALKKRLSWISVCLLVLVSAAGMLFSTAAKTETSSHKAHTEAQVINTFDGVADYLQTYHKLPDNYITKSEAQALGWVASKGNLADVAPGKSIGGDIFSNREGKLPGKSGRTWREADANYTSGFRNSDRILYSSDWLIYKTTDHYQTFTKIR, the “ddG of mutation (higher = less stable)” value is reported as 2.04 kcal/mol and 1.16 kcal/mol.
In the case of MMKMEGIALKKRLSWISVCLLVLVSAAGMLFSTAAKTETSSHKAHTEAQVINTFDGVADYLQTYHKLPDNYITKSEAQALGWVASKGNLADVAPGKSIGGDIFSNREGKLPGKSGRTWREADINYTSGFRNSDRITYSSDWLIYKTTDHYQTFTKIR, the “ddG of mutation (higher = less stable)” value is reported as 2.9 kcal/mol and 2.55 kcal/mol.
For MMKMEGIALKKRLSWISVCLLVLVSAAGMLFSTAAKTETSSHKAHTEAQVANTFDGVADYLQTYHKLPDNYITKSEAQALGWVASKGNLADVAPGKSIGGDIFSNREGKLPGKSGRTWREADINYTSGFRNSDRILYSSDWLIYKTTDHYQTFTKIR, the “ddG of mutation (higher = less stable)” value was 1.5 kcal/mol and 0.83 kcal/mol.

First: MMKMEGIALKKRLSWISVCLLVLVSAAGMLFSTAAKTETSSHKAHTEAQVINTFDGVADYLQTYHKLPDNYITKSEAQALGWVASKGNLADVAPGKSIGGDIFSNREGKLPGKSGRTWREADINYTSGFRNSDRILYSSDWLIYKTTDHYQTFTKVR
Second: MMKMEGIALKKRLSWISVCLLVLVSAAGMLFSTAAKTETSSHKAHTEAQVINTFDGVADYLQTYHKLPDNYITKSEAQALGWVASKGNLADVAPGKSIGGDIFSNREGKLPGKSGRTWREADVNYTSGFRNSDRILYSSDWLIYKTTDHYQTFTKIR
The “ddG of mutation (higher = less stable)” value of the first is lower: 0.82 kcal/mol for the first, 0.88 kcal/mol for the second.

Compared with MMKMEGIALKKRLSWISVCLLVLVSAAGMLFSTAAKTETSSHKAHTEAQVINTFDGVADYLQTYHKLPDNYITKSEAQALGWVASKGNLADVAPGKSIGGDIFSNREGKLPGKSGRTWREADINYTSGFRNSDRIVYSSDWLIYKTTDHYQTFTKIR, MMKMEGIALKKRLSWISVCLLVLVSAAGMLFSTAAKTETSSHKAHTEAQVIATFDGVADYLQTYHKLPDNYITKSEAQALGWVASKGNLADVAPGKSIGGDIFSNREGKLPGKSGRTWREADINYTSGFRNSDRILYSSDWLIYKTTDHYQTFTKIR is higher in “ddG of mutation (higher = less stable)” value: 0.03 kcal/mol for the first, 2.06 kcal/mol for the second.

Compared with MMKMEGIALKKRLSWISVCLLVLVSAAGMLFSTAAKTETSSHKAHTEAQVINTFDGVADYLQTYHKLPDNYITKSEAQALGWVASKGDLADVAPGKSIGGDIFSNREGKLPGKSGRTWREADINYTSGFRNSDRILYSSDWLIYKTTDHYQTFTKIR, MMKMEGIALKKRLSWISVCLLVLVSAAGMLFSTAAKTETSSHKAHTEAQVINTFDGVADYLQTYHKLPDNYVTKSEAQALGWVASKGNLADVAPGKSIGGDIFSNREGKLPGKSGRTWREADINYTSGFRNSDRILYSSDWLIYKTTDHYQTFTKIR is lower in “ddG of mutation (higher = less stable)” value: 2.51 kcal/mol for the first, 1.18 kcal/mol for the second.

First: MMKMEGIALKKRLSWISVCLLVLVSAAGMLFSTAAKTETSSHKAHTEAQVINTFDGVADYLQTYHKLPDNYITKSEAQALGWVASKGNLADVAPGKSIGGDIFSAREGKLPGKSGRTWREADINYTSGFRNSDRILYSSDWLIYKTTDHYQTFTKIR
Second: MMKMEGIALKKRLSWISVCLLVLVSAAGMLFSTAAKTETSSHKAHTEAQVINTFDGVADYLQTYHKLPDNYITKSEAQALGWAASKGNLADVAPGKSIGGDIFSNREGKLPGKSGRTWREADINYTSGFRNSDRILYSSDWLIYKTTDHYQTFTKIR
The “ddG of mutation (higher = less stable)” value of the first is higher: 2.17 kcal/mol for the first, 1.34 kcal/mol for the second.

Going from MMKMEGIALKKRLSWISVCLLVLVSAAGMLFSTAAKTETSSHKAHTEAQVINTFDGVADYLQTYHKLPDNYITKSEAQALGWVASKGNLADVAPGKSVGGDIFSNREGKLPGKSGRTWREADINYTSGFRNSDRILYSSDWLIYKTTDHYQTFTKIR to MMKMEGIALKKRLSWISVCLLVLVSAAGMLFSTAAKTETSSHKAHTEAQVINTFDGVADYLQTYHKLPDNYITKSEAQALGWVASKGNLADVAPGKSIGGDAFSNREGKLPGKSGRTWREADINYTSGFRNSDRILYSSDWLIYKTTDHYQTFTKIR, the “ddG of mutation (higher = less stable)” value falls from 1.85 kcal/mol to 1.28 kcal/mol.

Going from MMKMEGIALKKRLSWISVCLLVLVSAAGMLFSTAAKTETSSHKAHTEAQVINTFDGVADYLQTYHKLPDNYITKSEAQALGWVASKGNLADVAPGKSIGGDTFSNREGKLPGKSGRTWREADINYTSGFRNSDRILYSSDWLIYKTTDHYQTFTKIR to MMKMEGIALKKRLSWISVCLLVLVSAAGMLFSTAAKTETSSHKAHTEAQVINTFDGTADYLQTYHKLPDNYITKSEAQALGWVASKGNLADVAPGKSIGGDIFSNREGKLPGKSGRTWREADINYTSGFRNSDRILYSSDWLIYKTTDHYQTFTKIR, the “ddG of mutation (higher = less stable)” value rises from 1 kcal/mol to 2.58 kcal/mol.

Compared with MMKMEGIALKKRLSWISVCLLVLVSAAGMLFSTAAKTETSSHKAHTEAQVINTFDGAADYLQTYHKLPDNYITKSEAQALGWVASKGNLADVAPGKSIGGDIFSNREGKLPGKSGRTWREADINYTSGFRNSDRILYSSDWLIYKTTDHYQTFTKIR, MMKMEGIALKKRLSWISVCLLVLVSAAGMLFSTAAKTETSSHKAHTEAQVINTFDGVADYLQTYHKLPDNYITKSEAQALGWVASKGNLADVAPGKSIGGDIFSNREGKLPGKSGRTWREADINYTSGFRNSDRILYSSDWLIYKTTDHYQVFTKIR is lower in “ddG of mutation (higher = less stable)” value: 3.63 kcal/mol for the first, 2.25 kcal/mol for the second.

Compared with MMKMEGIALKKRLSWISVCLLVLVSAAGMLFSTAAKTETSSHKAHTEAQVINTFDGVADYLQTYHKLPDNYITKSEAQALGWVASKGNLADVAPGKSIGGDIFSNREGKLPGKSGRTWREADINYTSGFRNSDRILYSSDWLAYKTTDHYQTFTKIR, MMKMEGIALKKRLSWISVCLLVLVSAAGMLFSTAAKTETSSHKAHTEAQVINTFDGVADYLQTYHKLPDNYITKSEAQALGWVASKGNLADVAPGKSIGGDIFSNREGKLPGKSGRTWREADINYTSGFRNSDRILYSADWLIYKTTDHYQTFTKIR is higher in “ddG of mutation (higher = less stable)” value: 2.37 kcal/mol for the first, 2.74 kcal/mol for the second.

Going from MMKMEGIALKKRLSWISVCLLVLVSAAGMLFSTAAKTETSSHKAHTEAQVVNTFDGVADYLQTYHKLPDNYITKSEAQALGWVASKGNLADVAPGKSIGGDIFSNREGKLPGKSGRTWREADINYTSGFRNSDRILYSSDWLIYKTTDHYQTFTKIR to MMKMEGIALKKRLSWISVCLLVLVSAAGMLFSTAAKTETSSHKAHTEAQVINTFDGVADYLQTYHKLPDNYITKSEAQALGWVASKGNLADVAPGKSIGGDIFSNREGKLPGKSGRTWREADINYTSGFRASDRILYSSDWLIYKTTDHYQTFTKIR, the “ddG of mutation (higher = less stable)” value rises from 0.67 kcal/mol to 2.24 kcal/mol.

Going from MMKMEGIALKKRLSWISVCLLVLVSAAGMLFSTAAKTETSSHKAHTEAQVINTFDGVADYLQTYHKLPDNYITKSEAQALGWVASKGNLADVAPGKSIGGNIFSNREGKLPGKSGRTWREADINYTSGFRNSDRILYSSDWLIYKTTDHYQTFTKIR to MMKMEGIALKKRLSWISVCLLVLVSAAGMLFSTAAKTETSSHKAHTEAQVINTFDGVADYLQTYHKLPDNYITKSEAQALGWVASKGNLADVAPGKSIGGAIFSNREGKLPGKSGRTWREADINYTSGFRNSDRILYSSDWLIYKTTDHYQTFTKIR, the “ddG of mutation (higher = less stable)” value rises from 2.42 kcal/mol to 3.1 kcal/mol.

Compared with MMKMEGIALKKRLSWISVCLLVLVSAAGMLFSTAAKTETSSHKAHTEAQVINTFDGVADYLQTYHKLPDNYITKSEAQALGWVASKGNLADVAPGKSIGGDIFSNREGKLPGKSGRTWREADIAYTSGFRNSDRILYSSDWLIYKTTDHYQTFTKIR, MMKMEGIALKKRLSWISVCLLVLVSAAGMLFSTAAKTETSSHKAHTEAQVINTFDGVADYLQTYHKLPDNYITKSGAQALGWVASKGNLADVAPGKSIGGDIFSNREGKLPGKSGRTWREADINYTSGFRNSDRILYSSDWLIYKTTDHYQTFTKIR is higher in “ddG of mutation (higher = less stable)” value: 1.88 kcal/mol for the first, 1.9 kcal/mol for the second.

Compared with MMKMEGIALKKRLSWISVCLLVLVSAAGMLFSTAAKTETSSHKAHTEAQVINTFDGVADYLQTYHKLPDNYITKSEAQALGWVASKGNLADVAPGKSIGGDIFSNREGKLPGKSGRTWREADINYTSGFRNSDRALYSSDWLIYKTTDHYQTFTKIR, MMKMEGIALKKRLSWISVCLLVLVSAAGMLFSTAAKTETSSHKAHTEAQVINTFDGVADYLQTYHKLPDNYITKSEAQALGWVASKGNLADVAPGKSIGGDIFSNREGKLPGKSGRTWREADINYTSGFRNSDRILYASDWLIYKTTDHYQTFTKIR is lower in “ddG of mutation (higher = less stable)” value: 2.76 kcal/mol for the first, 1.93 kcal/mol for the second.

First: MMKMEGIALKKRLSWISVCLLVLVSAAGMLFSTAAKTETSSHKAHTEAQVINTFDGVADYLQTYHKLPDNYITKSEAQALGWVASKGNLADAAPGKSIGGDIFSNREGKLPGKSGRTWREADINYTSGFRNSDRILYSSDWLIYKTTDHYQTFTKIR
Second: MMKMEGIALKKRLSWISVCLLVLVSAAGMLFSTAAKTETSSHKAHTEAQVINTFDGVADYLQTYHKLPDNYITKSEAQALGWVASKGNLADTAPGKSIGGDIFSNREGKLPGKSGRTWREADINYTSGFRNSDRILYSSDWLIYKTTDHYQTFTKIR
The “ddG of mutation (higher = less stable)” value of the first is lower: 1.83 kcal/mol for the first, 2.44 kcal/mol for the second.

For MMKMEGIALKKRLSWISVCLLVLVSAAGMLFSTAAKTETSSHKAHTEAQVINTFDGVADYLQTYHKLPDNYITKSEAQALGWVASKGNLADVAPGKSIGGDIFSNREGRLPGKSGRTWREADINYTSGFRNSDRILYSSDWLIYKTTDHYQTFTKIR, the “ddG of mutation (higher = less stable)” value was 0.43 kcal/mol.
